Key:
Mt-DprE1 = target: T1, Mt-DprE1 (Mycobacterium tuberculosis, UniProt P9WJF1); assay: resazurin-based DprE1 enzyme assay with GGPR substrate; format: biochemical
T1 construct: N-terminal hexa-his tag

[1] = system: CC(C)=CCC/C(C)=C/CC/C(C)=C/CC/C(C)=C/COP(=O)(O)O[C@@H]1O[C@H](CO)[C@@H](O)[C@H]1O; assay: purified protein; conditions: FAD
[2] = system: NC(=O)C1=CN([C@@H]2O[C@H](COP(=O)(O)OP(=O)(O)OC[C@H]3O[C@@H](n4cnc5c(N)ncnc54)[C@H](O)[C@@H]3O)[C@@H](O)[C@H]2O)C=CC1; assay: purified protein; conditions: varied: cofactor
[3] = system: NC(=O)C1=CN([C@@H]2O[C@H](COP(=O)(O)OP(=O)(O)OC[C@H]3O[C@@H](n4cnc5c(N)ncnc54)[C@H](OP(=O)(O)O)[C@@H]3O)[C@@H](O)[C@H]2O)C=CC1; assay: purified protein; conditions: varied: cofactor

T1 sequence (P9WJF1 whole entry): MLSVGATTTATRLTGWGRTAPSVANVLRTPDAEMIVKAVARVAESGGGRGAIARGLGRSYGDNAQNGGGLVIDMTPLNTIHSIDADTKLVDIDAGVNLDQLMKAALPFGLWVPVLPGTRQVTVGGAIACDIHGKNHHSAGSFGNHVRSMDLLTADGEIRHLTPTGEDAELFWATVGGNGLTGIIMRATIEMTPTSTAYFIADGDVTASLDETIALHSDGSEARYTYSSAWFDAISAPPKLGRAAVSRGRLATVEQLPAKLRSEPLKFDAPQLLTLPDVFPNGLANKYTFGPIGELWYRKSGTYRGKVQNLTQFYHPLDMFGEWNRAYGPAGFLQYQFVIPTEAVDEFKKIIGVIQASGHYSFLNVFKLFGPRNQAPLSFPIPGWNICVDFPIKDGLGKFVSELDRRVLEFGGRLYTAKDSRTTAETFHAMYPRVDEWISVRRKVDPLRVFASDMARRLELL

Substance: BTZ
- IC50 (Mt-DprE1): 5.7 ± 0.5 µM

Substance: Mt-DprE1 (Mycobacterium tuberculosis H37Rv)
- Km [1]: 36.9 ± 0.7 µM
- Vmax [1]: 35.8 µM/min

Substance: Mt-DprE2 (Mycobacterium tuberculosis H37Rv)
- Km [2]: 10.5 ± 5.6 µM
- Vmax [2]: 14.3 µM/min
- Km [3]: 34.6 ± 11.2 µM
- Vmax [3]: 11.2 µM/min

From PMC9993113, “Assay development and inhibition of the Mt-DprE2 essential reductase from Mycobacterium tuberculosis” (Microbiology, 2023)
